Assay results as given in patent US20240262900A1, “MATERIALS AND METHODS FOR DIFFERENTIATING CREB REGULATEDTRANSCRIPTION COACTIVATOR 3” (JANSSEN BIOTECH, INC., priority 2021, published 2024).

B1: mAb #21: anti-phospho-Serine329 CRTC3 monoclonal antibody from rabbit hybridoma; VH SEQ ID NO: 99, VL SEQ ID NO: 100 (antibody, V domains shown)
VH: QSVEESGGRLVTPGTPLTLTCTVSGIDLSSNTVSWVRQAPGKGLEWIGVSGYSGRPYYASWAKGRFTISKTSSTVHLKITSPTAEDTATYFCARGSVNVNIWGPGTLVTVSS
VL: AQVLTQTASPVSAAVGGTVTINCQSSQSVYSSNRLSWFQQKPGQPPKLLMYYTSTLASGVPSRFKGSGSGTEFTLTISGVQCDDAATYYCLGGYDCDIADCSAFGGGTEVVVK
B2: mAb #82: anti-phospho-Serine329 CRTC3 monoclonal antibody from rabbit hybridoma; VH SEQ ID NO: 133, VL SEQ ID NO: 134 (antibody, V domains shown)
VH: QSVEESGGRLVTPGTPLTLTCTVSGIDLSSNTVSWVRQAPGKGLEWIGVIGYSGNGYYASWAKGRFTISKTSTTVDLKMTSPTAEDTATYFCARGSVNCNIWGPGTLVTVSS
VL: AQVLTQTASPVSAAVGGTVTINCQSSQSVISNNRLSWLQQKPGQPPKLLIYYASTLASGVPSRFKGSGSGTQFTLTISGVQCDDAATYYCLGGYDCNSADCSTFGGGTEVVVK
B3: mAb #157: anti-phospho-Serine370 CRTC3 monoclonal antibody from rabbit hybridoma; VH SEQ ID NO: 31, VL SEQ ID NO: 32 (antibody, V domains shown)
VH: QEQLKESGGGLFKPMDILTVTCTVSGISLSSYGLSWVRQAPGNGLEWIGAIGASGSAYYASWAKSRSTITRNTNLNTVTLKMTSLTAADTATYFCKRNYIWGPGTLVTVSS
VL: AQVLTQTASPVSAAVGGTVTINCQASQSVYSDNRLSWYQQKPGQPPKLLIYEASKLASGVPPRFSGSGSGTQFTLAISGVQCDDAATYYCQGSYDCNSADCSAFGGGTEVVVK
B4: mAb #170: anti-phospho-Serine370 CRTC3 monoclonal antibody from rabbit hybridoma; VH SEQ ID NO: 65, VL SEQ ID NO: 66 (antibody, V domains shown)
VH: QSMKESEGGLFKPTDTLTLTCTVSGFSLSRYGVIWVRQAPGKGLEFIGYISSTGSTYYASWAKSRSTITRNTNENTVTLKVTSLTAADTATYFCAQSGLGYDGGRNIWGPGTLVTVSS
VL: AAVLTQTPSPVSAAVGGTVSISCQSSKSVANSNWLSWYQQKPGQPPKLLIYSASTLASGAPSRFKGSGSGTQFTLTISDVQCDDAATYYCAGGYSDISDIFGFGGGTEVVVK

Experiments:
[1] = biological target: T1, CRTC3 phosphorylated at serine 329 (pSer329) (Homo sapiens, UniProt Q6UUV7); assay: Immunoblotting of in vitro phosphorylated recombinant CRTC3 wild type vs S329A mutant protein; format: binding; details: for specific detection of human CRTC3 by phosphorylation state (conclusion of the experiments): serine 329
T1 construct: All recombinant CRTC3 full-length protein versions are preceded with; FLAG (N); AVI (N); made in house; host or cells: Baculovirus expression system
T1 sequence (Q6UUV7 1-619): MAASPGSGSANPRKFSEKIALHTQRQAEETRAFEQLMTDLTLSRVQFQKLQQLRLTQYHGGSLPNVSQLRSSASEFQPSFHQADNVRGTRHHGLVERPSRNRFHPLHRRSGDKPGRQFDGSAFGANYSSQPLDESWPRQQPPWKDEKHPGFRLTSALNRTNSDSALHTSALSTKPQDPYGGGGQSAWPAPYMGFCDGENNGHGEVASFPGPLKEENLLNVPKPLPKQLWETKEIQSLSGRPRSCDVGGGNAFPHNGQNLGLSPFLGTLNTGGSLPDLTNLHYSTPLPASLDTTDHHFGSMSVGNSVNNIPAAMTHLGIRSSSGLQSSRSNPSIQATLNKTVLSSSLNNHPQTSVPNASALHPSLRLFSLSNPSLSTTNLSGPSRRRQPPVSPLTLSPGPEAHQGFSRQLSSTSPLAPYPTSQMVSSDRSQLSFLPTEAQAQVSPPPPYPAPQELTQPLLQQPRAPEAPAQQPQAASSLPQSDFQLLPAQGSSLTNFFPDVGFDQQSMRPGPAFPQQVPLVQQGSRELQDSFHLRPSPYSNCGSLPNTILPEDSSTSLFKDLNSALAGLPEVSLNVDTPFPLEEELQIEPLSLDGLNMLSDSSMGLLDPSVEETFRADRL
Excerpt: (§1) To facilitate the identification of hybridomas that produced antibodies specific for the phosphorylated immunizing peptides, CRTC3 proteins were designed that harbored serine to alanine mutations at either position 329 (S329A mutant) or 370 (S370A mutant; Table 3) rendering them unable to carry phosphate groups at positions 329 and 370, respectively. In addition, CRTC3 protein harboring the unmutated wild type (WT) amino acid sequence was produced as a control reagent (Table 3). Briefly, proteins were overexpressed in a Baculovirus expression system and purified using M2 anti-flag magnetic beads (Millipore-Sigma). The wild type protein was additionally subjected to subsequent size exclusion chromatography. All purified proteins were phosphorylated in vitro in the presence of internally produced SIK2 variant (6His-MBP-TEV-SIK2-PKD-UBA; SEQ ID NO: 187) and 1 mM ATP (Promega) in a buffer containing 50 mM Tris pH 7.5, 100 mM NaCl, 10 mM MgCl2 (all from Quality Biologicals), 0.1 mM EDTA (Corning), 1 mM DTT (MP Biomedicals). Phosphorylation reactions were quenched by the addition of excess EDTA.
(§2) Immunoblotting was done using the NuPAGE electrophoresis and western Blotting system (Invitrogen). Briefly, 0.1-0.15 microgram of WT or S329A mutant or S370A mutant recombinant protein along with WesternSure® Pre-stained Chemiluminescent Protein Ladder (Li-Cor) were loaded onto NuPAGE® Bis-Tris gels and separated by electrophoresis. Subsequently, proteins were transferred onto nitrocellulose membranes (iBlot® 2 Transfer Stacks, nitrocellulose, mini; ThermoFisher) using an iBlot 2® Gel Transfer Device (ThermoFisher). Specific bands on the nitrocellulose membranes were detected using the automatic Western blot-processing iBind™ Flex Western System (ThermoFisher) as per the manufacturer's recommendations. As primary antibodies served either undiluted hybridoma supernatant or recombinantly expressed mAbs at 0.25 microgram/ml, whereas Peroxidase AffiniPure Donkey Anti-Rabbit IgG (H+L) (Jackson ImmunoResearch) was used as secondary antibody at a 1:4000 dilution. The blots were developed using Amersham ECL Western Blotting Detection Reagent and an ImageQuant LAS4000 image scanner (both GE Healthcare Life Sciences).

[2] = test system: phosphorylated CRTC3 in THP1 lysates; assay: Immunoblotting of lysates of macrophage-differentiated, LPS-stimulated THP1 cells, untreated or incubated with dasatinib; format: binding, human; details: recombinant mAb
Excerpt: as §2
Cells were then either left untreated or incubated with dasatinib at 10 micromolar for 1.5 hours before cell harvest. […] Cells were washed in cold PBS (Gibco) and lysed on ice in 50 mM Tris HCl (Alfa Aesar) at pH 7.4, 1 mM DTT, 1% (vol/vol) Triton X-100 (both ThermoFisher), 1 mM EDTA (Gibco), 1 mM EGTA (Alfa Aesar) supplemented with protease inhibitor (cOmplete™ ULTRA Tablets; Roche) and phosphatase inhibitor (Phosstop, Roche) as per the manufacturer's recommendations for 1 hour. Extracted proteins were harvested by collecting the supernatant after centrifugation of the lysate for 20 minutes. Protein concentrations were determined using the Pierce Detergent-compatible Bradford Assay kit (Pierce). Lysate proteins were separated by gel electrophoresis and detected by immunoblotting as described above. […] That the detected signals indeed corresponded to CRTC3 was verified in independent experiments, in which similarly treated THP1 lysates were developed using an antibody recognizing CRTC3 independent of its phosphorylation status (EPR3440; purified; rabbit; Abcam; data not shown).

[3] = biological target: T2, CRTC3 phosphorylated at serine 370 (pSer370) (Homo sapiens, UniProt Q6UUV7); assay: Immunoblotting of in vitro phosphorylated recombinant CRTC3 wild type vs S370A mutant protein; format: binding; details: for specific recognition of human CRTC3 by phosphorylation state (conclusion of the experiments): serine 370
T2 construct: All recombinant CRTC3 full-length protein versions are preceded with; FLAG (N); AVI (N); made in house; host or cells: Baculovirus expression system
T2 sequence (Q6UUV7 1-619): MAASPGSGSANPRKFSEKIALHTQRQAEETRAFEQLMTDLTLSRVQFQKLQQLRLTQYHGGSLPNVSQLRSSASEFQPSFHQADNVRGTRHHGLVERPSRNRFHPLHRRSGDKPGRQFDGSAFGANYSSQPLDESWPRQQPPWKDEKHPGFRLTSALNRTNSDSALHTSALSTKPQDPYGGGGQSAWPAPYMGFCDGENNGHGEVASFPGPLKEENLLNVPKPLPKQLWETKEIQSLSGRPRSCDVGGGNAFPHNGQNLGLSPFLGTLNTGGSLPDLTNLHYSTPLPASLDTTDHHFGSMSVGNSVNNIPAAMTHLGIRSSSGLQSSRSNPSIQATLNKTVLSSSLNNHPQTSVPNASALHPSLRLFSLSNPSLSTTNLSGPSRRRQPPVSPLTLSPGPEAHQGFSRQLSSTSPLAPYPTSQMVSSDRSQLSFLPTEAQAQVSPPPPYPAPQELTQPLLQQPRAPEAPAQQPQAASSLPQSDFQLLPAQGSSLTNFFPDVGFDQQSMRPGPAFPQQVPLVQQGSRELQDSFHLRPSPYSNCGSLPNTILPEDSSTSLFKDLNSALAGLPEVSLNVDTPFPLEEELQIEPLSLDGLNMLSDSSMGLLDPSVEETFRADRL
Excerpt: as §1, §2

[4] = recombinantly expressed mAb at 0.25 microgram/ml, FIG. 2C
[5] = undiluted hybridoma tissue culture supernatant as primary antibody, FIG. 2A
[6] = THP1 lysates not incubated with a SIK inhibitor (lane 3)
[7] = THP1 lysates treated for 1.5 hours with dasatinib at 10 micromolar (lane 4)
[8] = recombinant mAb at 0.25 microgram/ml, FIG. 2D
[9] = undiluted hybridoma supernatant as primary antibody, FIG. 2B

Row | Molecule | recognition of recombinant CRTC3 WT vs S329A variant by western blot [1, 4] | specific detection of human CRTC3 by phosphorylation state (conclusion of the experiments) [1] | recognition of recombinant CRTC3 WT vs S329A variant by western blot [1, 5] | immunoblot signal at the expected molecular size in THP1 lysates [2, 6] | immunoblot signal at the expected molecular size in THP1 lysates [2, 7] | signal with recombinant CRTC3 WT vs S370A mutant by western blot [3, 8] | specific recognition of human CRTC3 by phosphorylation state (conclusion of the experiments) [3] | signal with recombinant CRTC3 WT vs S370A mutant by western blot [3, 9]
1 | B1 | specifically recognized only recombinant CRTC3 protein harboring the WT sequence | specifically detected human CRTC3 only when phosphorylated at serine 329 | specifically recognized only recombinant CRTC3 protein harboring the WT sequence | strong signal | strongly diminished |  |  | 
2 | B2 | specifically recognized only recombinant CRTC3 protein harboring the WT sequence | specifically detected human CRTC3 only when phosphorylated at serine 329 | specifically recognized only recombinant CRTC3 protein harboring the WT sequence | strong signal | strongly diminished |  |  | 
3 | B3 |  |  |  | strong signal | strongly diminished | specific signal only with WT | specifically recognized human CRTC3 only when phosphorylated at serine 370 | specific signal only with WT
4 | B4 |  |  |  | strong signal | strongly diminished | specific signal only with WT | specifically recognized human CRTC3 only when phosphorylated at serine 370 | specific signal only with WT
